According to patent US20170240635A1 (AGENCY FOR SCIENCE TECHNOLOGY AND RESEARCH, published 2017):
Where a chain is given by its changes, count along the chain named. Like-named read-outs stand apart in the source and are kept apart here.

Legend:
[1] = target: T1, human PD-1 coupled to human Fc (human, UniProt Q15116 25-167, limits assumed); test: SPR (ProteOn XPR36); human PD-1-Fc immobilised, crude Fab extract flown over
T1 construct: also called human-PD-1 coupled to Fc; not shown: human Fc
Description: Briefly, human or mouse PD-1 coupled to human Fc was immobilised on a sensor chip compatible with the Proteon XPR36 bioanalyser (Biorad). Crude Fab extracts (or the control antibodies) were then flown onto the chip and the association/dissociation of each candidate Fab was then recorded and analysed, the affinity (KD) was calculated.

hCTLA4-Fc = target: T2, hCTLA4-Fc (human, UniProt P16410); test: ELISA; antigen coated 350 ng/well, Fab-containing supernatant, goat anti-human Fab-HRP, absorbance 450-670 nm
T2 construct: also called human CTLA-4; human CTLA4

[2] = target: T3, human PD-L1 coupled to human Fc (human, UniProt Q9NZQ7 19-239, limits assumed); test: ELISA; antigen coated 350 ng/well, goat anti-human Fab-HRP, absorbance 450-670 nm
T3 construct: ELISA coating antigen; not shown: human Fc
Description: (§1) Anti-PD-1 antibodies were tested in an ELISA assay for their ability to bind to other members of the CD28 family.
(§2) Briefly, ELISA plates were coated with 350 ng/well of one of the following antigens coupled to human Fc in carbonate buffer: human PD-1, human PD-L1, human TIM-3, human LAG-3, human ICOS, human CTLA4, human BTLA, human CD28, mouse TIM-3, or rhesus PD-1. The plate was then blocked with a solution of casein. After extensive washes in PBS Tween-20, antibodies were added into the ELISA wells in the presence of 7% milk in PBS. After 90 minutes at room temperature under agitation and extensive washes, a goat anti-human Fab antibody coupled to HRP was added. One hour later, plates were washed and TMB substrate added. The reaction was stopped with 1M HCl and optical density measured at 450 nm with a reference at 670 nm.

[3] = target: T4, human CD28 coupled to human Fc (human, UniProt P10747 19-152, limits assumed); test: as above
T4 construct: ELISA coating antigen; not shown: human Fc
Description: as §1, §2

[4] = target: T5, human BTLA coupled to human Fc (human, UniProt Q7Z6A9 31-150, limits assumed); test: as above
T5 construct: ELISA coating antigen; not shown: human Fc
Description: as §1, §2

[5] = target: T6, human TIM-3 coupled to human Fc (human, UniProt Q8TDQ0 22-200, limits assumed); test: as above
T6 construct: not shown: human Fc
Description: as §1, §2

hICOS-Fc = target: T7, hICOS-Fc (human, UniProt Q9Y6W8); test: as above
T7 construct: also called human ICOS
T7 sequence (antigen, looked up): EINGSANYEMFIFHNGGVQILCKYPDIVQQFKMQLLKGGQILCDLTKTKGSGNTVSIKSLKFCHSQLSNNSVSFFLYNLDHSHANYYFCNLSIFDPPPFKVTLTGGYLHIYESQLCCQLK
Description: as §1, §2

[6] = target: T8, human LAG-3 coupled to human Fc (human, UniProt P18627 23-450, limits assumed); test: as above
T8 construct: ELISA coating antigen; not shown: human Fc
T8 sequence (looked up): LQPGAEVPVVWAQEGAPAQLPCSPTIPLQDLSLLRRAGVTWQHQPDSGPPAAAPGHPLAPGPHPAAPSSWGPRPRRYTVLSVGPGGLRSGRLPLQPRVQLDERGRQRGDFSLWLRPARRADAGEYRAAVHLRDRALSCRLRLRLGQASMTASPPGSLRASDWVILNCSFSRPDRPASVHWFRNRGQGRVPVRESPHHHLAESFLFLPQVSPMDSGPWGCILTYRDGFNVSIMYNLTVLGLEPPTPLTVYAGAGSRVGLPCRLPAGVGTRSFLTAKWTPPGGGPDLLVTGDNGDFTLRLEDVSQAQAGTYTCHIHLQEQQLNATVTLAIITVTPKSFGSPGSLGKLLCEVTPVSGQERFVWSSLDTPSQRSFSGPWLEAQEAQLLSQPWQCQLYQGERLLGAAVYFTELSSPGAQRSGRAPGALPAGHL
Description: as §1, §2

mTim3-Fc = target: T9, mTim3-Fc (mouse, UniProt Q8VIM0); test: as above
T9 construct: also called mouse TIM-3
Description: as §1, §2

[7] = target: T10, PD-1 on exhausted human T cells (human, UniProt Q15116 25-288); test: flow cytometry (MFI); IgG4 on human T cells activated 7 days with allogeneic DCs, fluorescent secondary antibody
T10 construct: whole, on cells; T cells exhausted by 7 days of culture with allogeneic monocyte-derived dendritic cells
Description: (§3) 50,000 T cells isolated from a healthy donor were incubated in the presence of 5,000 monocyte-derived DCs from another donor for 7 days at 37° C. Antibodies, expressed as IgG4, were incubated with such activated T cells for 30 minutes in PBS. After a wash in PBS, a fluorescent labelled secondary antibody was added for 30 minutes and then washed in PBS. Cells were resuspended in FACS buffer and binding of the antibody to the cells was monitored by flow cytometry (FIGS. 6 and 7).

[8] = target: T10, PD-1 on exhausted human T cells; test: as above; remark: listed apart in the source
Description: as §3

T2 sequence (P16410 37-162 limits assumed): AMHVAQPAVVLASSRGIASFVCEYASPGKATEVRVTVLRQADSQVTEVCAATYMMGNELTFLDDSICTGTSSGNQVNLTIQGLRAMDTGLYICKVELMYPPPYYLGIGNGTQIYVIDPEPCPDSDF
T5 sequence (Q7Z6A9 31-150 limits assumed): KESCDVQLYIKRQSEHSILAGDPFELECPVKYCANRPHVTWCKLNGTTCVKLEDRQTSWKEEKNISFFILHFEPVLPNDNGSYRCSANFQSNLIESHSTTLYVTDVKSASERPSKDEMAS
T10 sequence (Q15116 25-288): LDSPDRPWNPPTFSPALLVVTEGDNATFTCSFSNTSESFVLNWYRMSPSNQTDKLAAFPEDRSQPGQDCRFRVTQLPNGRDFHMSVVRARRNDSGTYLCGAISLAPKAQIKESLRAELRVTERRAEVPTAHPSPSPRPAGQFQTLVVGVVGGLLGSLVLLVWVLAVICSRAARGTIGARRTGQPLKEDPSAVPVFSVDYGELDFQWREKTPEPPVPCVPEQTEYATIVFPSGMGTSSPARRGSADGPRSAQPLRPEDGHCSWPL
T9 sequence (Q8VIM0 20-191 limits assumed): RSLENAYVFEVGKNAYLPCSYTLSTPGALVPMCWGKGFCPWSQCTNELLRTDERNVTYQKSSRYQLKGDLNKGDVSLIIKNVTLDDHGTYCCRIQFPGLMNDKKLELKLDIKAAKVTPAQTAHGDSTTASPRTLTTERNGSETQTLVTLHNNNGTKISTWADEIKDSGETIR
T3 sequence (Q9NZQ7 19-239 limits assumed): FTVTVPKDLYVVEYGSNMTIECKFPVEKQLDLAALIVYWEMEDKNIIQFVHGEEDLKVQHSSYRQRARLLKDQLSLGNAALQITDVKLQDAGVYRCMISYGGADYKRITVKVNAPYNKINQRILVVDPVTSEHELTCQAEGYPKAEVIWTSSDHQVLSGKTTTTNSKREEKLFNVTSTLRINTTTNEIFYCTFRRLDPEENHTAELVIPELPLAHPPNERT
T1 sequence (Q15116 25-167 limits assumed): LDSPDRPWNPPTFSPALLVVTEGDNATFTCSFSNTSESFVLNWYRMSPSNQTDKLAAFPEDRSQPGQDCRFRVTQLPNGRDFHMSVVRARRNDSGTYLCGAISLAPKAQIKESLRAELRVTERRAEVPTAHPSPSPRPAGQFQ

B1: anti-PD-1 antibody clone B6 (Fab) (Fab, V domains shown)
VH: QVQLVESGGGVVQPGRSLRLSCAASGFTFSSYGMHWVRQAPGKGLEWVAVISYDGSNKYYADSVKGRFTISRDNSKNTLYLQMNSLRAEDTAVYYCASDYGAGPYYYGMDVWGQGTTVTVSS
VL: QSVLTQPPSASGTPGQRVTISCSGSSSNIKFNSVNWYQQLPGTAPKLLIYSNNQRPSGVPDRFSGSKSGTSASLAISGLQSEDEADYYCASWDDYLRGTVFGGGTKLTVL
notes: Crude Fab extract in SPR
For B1, the Kd [1] was 0.26 nM, the binding result (hCTLA4-Fc) was “no binding (tested: not given)” and the binding result [2] was “no binding (tested: not given)”. B1: no binding (tested: not given) [3]; no binding (tested: not given) [4]; no binding (tested: not given) [5]. B1: no binding (tested: not given) (hICOS-Fc); no binding (tested: not given) [6]; no binding (tested: not given) (mTim3-Fc).

B2: anti-PD-1 antibody clone C4 (Fab) (Fab, V domains shown)
VH: B1 VH with Y100L, M109L
VL: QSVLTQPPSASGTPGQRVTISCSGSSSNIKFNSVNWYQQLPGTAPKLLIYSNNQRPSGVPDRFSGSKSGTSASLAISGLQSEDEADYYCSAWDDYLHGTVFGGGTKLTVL
notes: Crude Fab extract in SPR
B2 was tested, and the Kd [1] was 0.4 nM, the binding result (hCTLA4-Fc) was “no binding (tested: not given)” and the binding result [2] was “no binding (tested: not given)”. B2: no binding (tested: not given) [3]; no binding (tested: not given) [4]; no binding (tested: not given) [5]. B2: no binding (tested: not given) (hICOS-Fc); no binding (tested: not given) [6]; no binding (tested: not given) (mTim3-Fc).

B3: anti-PD-1 antibody clone D4 (Fab) (Fab, V domains shown)
VH: B1 VH with Y100L
VL: QSVLTQPPSASGTPGQRVTISCSGSSSNIKFNSVNWYQQLPGTAPKLLIYSNNQRPSGVPDRFSGSKSGTSASLAISGLQSEDEADYYCASWDDYVRGTMFGGGTKLTVL
notes: Crude Fab extract in SPR
In the case of B3, the Kd [1] is reported as 0.22 nM, the binding result (hCTLA4-Fc) is reported as “no binding (tested: not given)” and the binding result [2] is reported as “no binding (tested: not given)”. B3: no binding (tested: not given) [3]; no binding (tested: not given) [4]; no binding (tested: not given) [5]. B3: no binding (tested: not given) (hICOS-Fc); no binding (tested: not given) [6]; no binding (tested: not given) (mTim3-Fc).

B4: anti-PD-1 antibody clone E1 (Fab) (Fab, V domains shown)
VH: B1 VH with Y100L
VL: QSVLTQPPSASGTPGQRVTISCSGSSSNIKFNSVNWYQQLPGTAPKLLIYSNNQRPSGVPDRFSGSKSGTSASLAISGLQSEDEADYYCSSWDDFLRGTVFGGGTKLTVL
notes: Crude Fab extract in SPR
In the case of B4, the Kd [1] is reported as 0.21 nM, the binding result (hCTLA4-Fc) is reported as “no binding (tested: not given)” and the binding result [2] is reported as “no binding (tested: not given)”. B4: no binding (tested: not given) [3]; no binding (tested: not given) [4]; no binding (tested: not given) [5]. B4: no binding (tested: not given) (hICOS-Fc); no binding (tested: not given) [6]; no binding (tested: not given) (mTim3-Fc).

B5: anti-PD-1 antibody clone G10 (Fab) (Fab, V domains shown)
VH: B1 VH
VL: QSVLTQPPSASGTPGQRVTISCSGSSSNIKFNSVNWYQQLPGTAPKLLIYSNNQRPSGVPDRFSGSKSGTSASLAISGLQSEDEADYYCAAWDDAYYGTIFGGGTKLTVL
notes: Crude Fab extract in SPR
B5 was tested, and the Kd [1] was 0.27 nM, the binding result (hCTLA4-Fc) was “no binding (tested: not given)” and the binding result [2] was “no binding (tested: not given)”. B5: no binding (tested: not given) [3]; no binding (tested: not given) [4]; no binding (tested: not given) [5]. B5: no binding (tested: not given) (hICOS-Fc); no binding (tested: not given) [6]; no binding (tested: not given) (mTim3-Fc).

B6: A3-IgG4 (antibody, V domains shown)
VH: B1 VH with E6Q, Y100L, M109K, V111H
VL: B3 VL with Q1L, S2P, Y88F, Y95V, V96L, R97Y, T99S, M100V
notes: also called anti-PD-1 antibody clone A3 (human IgG4)
B6 showed an EC50 [7] of 0.855 nM.

B7: A10-IgG4 (antibody, V domains shown)
VH: B1 VH with E6Q, Y100L, M109K
VL: B3 VL with Q1L, S2P, Y88F, V96Y, R97Y, M100I
notes: also called anti-PD-1 antibody clone A10 (human IgG4)
For B7, the EC50 [8] was 0.253 nM and the EC50 [7] was 0.262 nM.
